Reference: patent US20250298013A1

What was measured:
[1] = target: Background (Staphylococcus aureus); experiment: SPRi, in-line blocking: IgG mix injected after thiolated PEG over a chip functionalised with thiolated protein A, (-) press load [Continued) C]
[2] = target: Background (Staphylococcus aureus); experiment: SPRi, in-line blocking: IgG mix injected after thiolated PEG over a chip functionalised with thiolated protein A, (+) press load (300 Pa) [Continued) E]

Work on IgG mix (antibody) yielded an IgG change (Background curve) (%Reflectivity) [1] of 12 and an IgG change (Background curve) (%Reflectivity) [2] of 2.
